The target in assay [1] is T1, cynomolgus EpCAM antigen on transfected CHO cells (cynomolgus, UniProt Q1WER1 24-265 (rhesus entry)).
T1 construct: 48 holds the extracellular portion
T1 sequence: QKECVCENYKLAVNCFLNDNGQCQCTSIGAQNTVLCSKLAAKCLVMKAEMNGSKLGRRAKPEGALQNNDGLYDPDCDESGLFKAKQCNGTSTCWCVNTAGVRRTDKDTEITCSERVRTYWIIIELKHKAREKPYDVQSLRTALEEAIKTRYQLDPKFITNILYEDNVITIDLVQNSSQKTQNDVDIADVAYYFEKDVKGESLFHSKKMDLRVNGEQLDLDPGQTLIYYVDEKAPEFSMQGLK
In words: FACS, cynomolgus EpCAM transfected CHO cells (FIG. 8B), anti-His detection. The source says: (§1) FIG. 8: FACS assay for binding of 2G8LH×SEQ ID NO. 12, 2G8LH×SEQ ID NO. 10, 2G8LH×SEQ ID NO. 16, 2G8LH×SEQ ID NO. 14, 2G8HL×SEQ ID NO. 12, 2G8HL×SEQ ID NO. 10, 2G8HL×SEQ ID NO. 16 and 2G8HL×SEQ ID NO. 14 on Kato III (FIG. 8A) cells or cynomolgus EpCAM transfected CHO cells (FIG. 8B) and HPB-ALL cells. Antigen binding was clearly detectable for the anti EpCAM specificities as well as for the anti CD3 specificities. As a negative control for binding to cynomolgus EpCAM, the 5-10LH×SEQ ID NO.
(§2) Binding of the bifunctional constructs from cell culture supernatants or binding of purified bifunctional constructs to the human EpCAM antigen on Kato III cells or cynomolgus EpCAM transfected CHO cells and to the CD3 antigen on HPB-ALL cells was tested using an FACS assay. For that purpose 2.5×10⁵ cells were incubated with 50 μl supernatant or with 5 μg/ml of the purified constructs in 50 μl PBS with 2% FCS. The binding of the constructs was detected with an anti-His antibody (Penta-His Antibody, BSA free, obtained from Qiagen GmbH, Hilden, FRG) at 2 μg/ml in 50 μl PBS with 2% FCS. […] The samples were measured on a FACSscan (BD biosciences, Heidelberg, FRG). Antigen binding was clearly detectable for the anti EpCAM specificities as well as for the anti CD3 specificities (see FIG. 8). As a negative control for binding to cynomolgus EpCAM, the 5-10LH×SEQ ID NO. […] The 5-10LH part only binds to human EpCAM.

For assay [2], the target named is T2, human EpCAM antigen on Kato III cells or human EpCAM transfected CHO cells (human, UniProt P16422 24-265).
T2 construct: 137 holds only the extracellular portion; the protein stood whole on cells
T2 sequence: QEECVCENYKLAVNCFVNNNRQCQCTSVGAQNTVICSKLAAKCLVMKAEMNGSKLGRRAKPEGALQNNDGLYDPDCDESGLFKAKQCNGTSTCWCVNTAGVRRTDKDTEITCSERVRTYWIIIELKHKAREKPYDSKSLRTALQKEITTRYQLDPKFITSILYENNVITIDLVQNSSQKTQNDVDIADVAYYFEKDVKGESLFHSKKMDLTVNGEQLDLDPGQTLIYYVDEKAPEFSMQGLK
In words: FACS, Kato III cells (FIG. 8A), anti-His detection.
Description: as §1, §2
(In flow cytometry, cells or beads pass a laser one at a time.)

For assay [3], the target named is T1, cynomolgus EpCAM antigen on transfected …. Kind of assay: cell-based or functional assay.
Assay [4] deals with cynomolgus CD3 antigen on cynomolgus PBMC / macaque T cells (Macaca fascicularis (cynomolgus), UniProt Q95LI5 22-117; Q95LI7 23-110; Q95LI8 22-103). In words: cell-based or functional assay.
cynomolgus CD3 antigen on cynomolgus PBMC / macaque T cells, sequence (Q95LI5 22-117, chain 1 of 3): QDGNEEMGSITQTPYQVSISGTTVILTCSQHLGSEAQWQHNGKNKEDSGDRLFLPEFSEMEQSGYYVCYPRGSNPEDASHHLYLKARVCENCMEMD
cynomolgus CD3 antigen on cynomolgus PBMC / macaque T cells, sequence (Q95LI7 23-110, chain 2 of 3): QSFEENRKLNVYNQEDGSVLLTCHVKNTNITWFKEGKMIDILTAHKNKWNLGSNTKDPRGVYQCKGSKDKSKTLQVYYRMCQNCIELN
cynomolgus CD3 antigen on cynomolgus PBMC / macaque T cells, sequence (Q95LI8 22-103, chain 3 of 3): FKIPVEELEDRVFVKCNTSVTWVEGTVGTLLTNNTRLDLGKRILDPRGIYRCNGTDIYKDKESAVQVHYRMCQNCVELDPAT

B1: 2G8LH×SEQ ID NO. 14 bispecific single chain antibody (bispecific antibody)
chain: DVVMTQTPLTLSVTIGQPASISCKSSQSLLYSNGKTYLNWILQRPGQSPKRLIYLVSKLDSGVPDRFTGSGSGTDFTLKISRVEAEDLGVYYCVQGTHFPLTFGAGTKLELKGGGGSGGGGSGGGGSEVQLQQSGAELVRSGASVKLSCTASGFNIKDYYLHWVKQRPEQGLEWIAWIDLENGDIKYAPKFQGKATITADTSSNTAYLQLSSLTSEDTAVYYCNPYYYGSNYDYAMDYWGQGTSVTVSSGGGGSQVQLQQSGAELARPGASVKMSCKASGYTFTRSTMHWVKQRPGQGLEWIGYINPSSAYTNYNQKFKDKATLTADKSSSTAYMQLSSLTSEDSAVYYCASPQVHYDYNGFPYWGQGTLVTVSAGGGGSGGGGSGGGGSQVVLTQSPAIMSAFPGEKVTMTCSASSSVSYMNWYQQKSGTSPKRWIYDSSKLASGVPARFSGSGSGTSYSLTISSMETEDAATYYCQQWSRNPPTFGGGTKLQITHHHHHH
With B1, the binding result in assay [1] and in assay [2] was “binds” in each case.

B2: 2G8LH×SEQ ID NO. 10 bispecific single chain antibody (bispecific antibody)
chain: DVVMTQTPLTLSVTIGQPASISCKSSQSLLYSNGKTYLNWILQRPGQSPKRLIYLVSKLDSGVPDRFTGSGSGTDFTLKISRVEAEDLGVYYCVQGTHFPLTFGAGTKLELKGGGGSGGGGSGGGGSEVQLQQSGAELVRSGASVKLSCTASGFNIKDYYLHWVKQRPEQGLEWIAWIDLENGDIKYAPKFQGKATITADTSSNTAYLQLSSLTSEDTAVYYCNPYYYGSNYDYAMDYWGQGTSVTVSSGGGGSEVKLLESGGGLVQPKGSLKLSCAASGFTFNTYAMNWVRQAPGKGLEWVARIRSKYNNYATYYADSVKDRFTISRDDSQSILYLQMNNLKTEDTAMYYCVRHGNFGNSYVSWFAYWGQGTLVTVSAGGGGSGGGGSGGGGSQAVVTQESALTTSPGETVTLTCRSSTGAVTTSNYANWVQEKPDHLFTGLIGGTNKRAPGVPARFSGSLIGDKAALTITGAQTEDEAIYFCALWYSNLWVFGGGTKLTVLHHHHHH
For the molecule B2, the binding result in assay [2] is given as “binds”. In assay [3], the “EC50 (half maximal killing), FACS-based cytotoxicity, cynomolgus EpCAM transfected CHO target cells, cynomolgus PBMC effector cells” value turned out to be 0.0398 µg/mL and the “EC50 (half maximal killing), FACS-based cytotoxicity, cynomolgus EpCAM transfected CHO target cells, human PBMC effector cells” value worked out at 0.0011 µg/mL. In addition, in assay [4], the “EC50 (half maximal killing), FACS-based cytotoxicity, cynomolgus EpCAM transfected CHO target cells, cynomolgus PBMC effector cells” value came to 0.0398 µg/mL.

B3: 2G8HL×SEQ ID NO. 14 bispecific single chain antibody (bispecific antibody)
chain: EVQLQQSGAELVRSGASVKLSCTASGFNIKDYYLHWVKQRPEQGLEWIAWIDLENGDIKYAPKFQGKATITADTSSNTAYLQLSSLTSEDTAVYYCNPYYYGSNYDYAMDYWGQGTSVTVSSGGGGSGGGGSGGGGSDVVMTQTPLTLSVTIGQPASISCKSSQSLLYSNGKTYLNWILQRPGQSPKRLIYLVSKLDSGVPDRFTGSGSGTDFTLKISRVEAEDLGVYYCVQGTHFPLTFGAGTKLELKSGGGGSQVQLQQSGAELARPGASVKMSCKASGYTFTRSTMHWVKQRPGQGLEWIGYINPSSAYTNYNQKFKDKATLTADKSSSTAYMQLSSLTSEDSAVYYCASPQVHYDYNGFPYWGQGTLVTVSAGGGGSGGGGSGGGGSQVVLTQSPAIMSAFPGEKVTMTCSASSSVSYMNWYQQKSGTSPKRWIYDSSKLASGVPARFSGSGSGTSYSLTISSMETEDAATYYCQQWSRNPPTFGGGTKLQITHHHHHH
In the case of B3, the binding result in assay [1] and in assay [2] was “binds” throughout.

B4: 2G8LH×SEQ ID NO. 16 bispecific single chain antibody (bispecific antibody)
chain: DVVMTQTPLTLSVTIGQPASISCKSSQSLLYSNGKTYLNWILQRPGQSPKRLIYLVSKLDSGVPDRFTGSGSGTDFTLKISRVEAEDLGVYYCVQGTHFPLTFGAGTKLELKGGGGSGGGGSGGGGSEVQLQQSGAELVRSGASVKLSCTASGFNIKDYYLHWVKQRPEQGLEWIAWIDLENGDIKYAPKFQGKATITADTSSNTAYLQLSSLTSEDTAVYYCNPYYYGSNYDYAMDYWGQGTSVTVSSGGGGSQVVLTQSPAIMSAFPGEKVTMTCSASSSVSYMNWYQQKSGTSPKRWIYDSSKLASGVPARFSGSGSGTSYSLTISSMETEDAATYYCQQWSRNPPTFGGGTKLQITGGGGSGGGGSGGGGSQVQLQQSGAELARPGASVKMSCKASGYTFTRSTMHWVKQRPGQGLEWIGYINPSSAYTNYNQKFKDKATLTADKSSSTAYMQLSSLTSEDSAVYYCASPQVHYDYNGFPYWGQGTLVTVSAHHHHHH
As for B4, the binding result in assay [1] and in assay [2] was “binds” each time.

B5: 2G8LH×SEQ ID NO. 12 bispecific single chain antibody (bispecific antibody)
chain: DVVMTQTPLTLSVTIGQPASISCKSSQSLLYSNGKTYLNWILQRPGQSPKRLIYLVSKLDSGVPDRFTGSGSGTDFTLKISRVEAEDLGVYYCVQGTHFPLTFGAGTKLELKGGGGSGGGGSGGGGSEVQLQQSGAELVRSGASVKLSCTASGFNIKDYYLHWVKQRPEQGLEWIAWIDLENGDIKYAPKFQGKATITADTSSNTAYLQLSSLTSEDTAVYYCNPYYYGSNYDYAMDYWGQGTSVTVSSGGGGSQAVVTQESALTTSPGETVTLTCRSSTGAVTTSNYANWVQEKPDHLFTGLIGGTNKRAPGVPARFSGSLIGDKAALTITGAQTEDEAIYFCALWYSNLWVFGGGTKLTVLGGGGSGGGGSGGGGSEVKLLESGGGLVQPKGSLKLSCAASGFTFNTYAMNWVRQAPGKGLEWVARIRSKYNNYATYYADSVKDRFTISRDDSQSILYLQMNNLKTEDTAMYYCVRHGNFGNSYVSWFAYWGQGTLVTVSAHHHHHH
On to B5, for which the binding result in assay [1] and in assay [2] was “binds” throughout.

B6: 2G8HL×SEQ ID NO. 16 bispecific single chain antibody (bispecific antibody)
chain: EVQLQQSGAELVRSGASVKLSCTASGFNIKDYYLHWVKQRPEQGLEWIAWIDLENGDIKYAPKFQGKATITADTSSNTAYLQLSSLTSEDTAVYYCNPYYYGSNYDYAMDYWGQGTSVTVSSGGGGSGGGGSGGGGSDVVMTQTPLTLSVTIGQPASISCKSSQSLLYSNGKTYLNWILQRPGQSPKRLIYLVSKLDSGVPDRFTGSGSGTDFTLKISRVEAEDLGVYYCVQGTHFPLTFGAGTKLELKSGGGGSQVVLTQSPAIMSAFPGEKVTMTCSASSSVSYMNWYQQKSGTSPKRWIYDSSKLASGVPARFSGSGSGTSYSLTISSMETEDAATYYCQQWSRNPPTFGGGTKLQITGGGGSGGGGSGGGGSQVQLQQSGAELARPGASVKMSCKASGYTFTRSTMHWVKQRPGQGLEWIGYINPSSAYTNYNQKFKDKATLTADKSSSTAYMQLSSLTSEDSAVYYCASPQVHYDYNGFPYWGQGTLVTVSAHHHHHH
B6: the binding result in assay [1] and in assay [2] was “binds” throughout.

B7: 2G8HL×SEQ ID NO. 10 bispecific single chain antibody (bispecific antibody)
chain: EVQLQQSGAELVRSGASVKLSCTASGFNIKDYYLHWVKQRPEQGLEWIAWIDLENGDIKYAPKFQGKATITADTSSNTAYLQLSSLTSEDTAVYYCNPYYYGSNYDYAMDYWGQGTSVTVSSGGGGSGGGGSGGGGSDVVMTQTPLTLSVTIGQPASISCKSSQSLLYSNGKTYLNWILQRPGQSPKRLIYLVSKLDSGVPDRFTGSGSGTDFTLKISRVEAEDLGVYYCVQGTHFPLTFGAGTKLELKSGGGGSEVKLLESGGGLVQPKGSLKLSCAASGFTFNTYAMNWVRQAPGKGLEWVARIRSKYNNYATYYADSVKDRFTISRDDSQSILYLQMNNLKTEDTAMYYCVRHGNFGNSYVSWFAYWGQGTLVTVSAGGGGSGGGGSGGGGSQAVVTQESALTTSPGETVTLTCRSSTGAVTTSNYANWVQEKPDHLFTGLIGGTNKRAPGVPARFSGSLIGDKAALTITGAQTEDEAIYFCALWYSNLWVFGGGTKLTVLHHHHHH
With B7, the binding result in assay [1] and in assay [2] was “binds” throughout.

(Values after patent publication US20090252683A1 (Amgen, published 2009).)
